Laboratory results published in patent US20210009686A1 (BEIJING XUANYI PHARMASCIENCES, published 2021).

B1: chimeric Ab 4-N1-A (antibody, V domains shown)
VH: EVQLVNSGGGLVKPGGSRKLSCAASGFTFSDYGMHWVRQAPEKGLEWVAYISSGSSTIYYADTMKGRFTISRDNAKNTLFLQMTSLRSEDTAMYYCARFVRGNSMDYWGQGTSVTVSS
VL: DIVMTQSPSSLTVTAGEKVTMSCKSSQSLLNSGNQKNYLTWYQQKPGQPPKLLIYWASTRESGVPDRFTGSGSGTDFTLTISSVQAEDLTVYYCQNAYSYPLTFGAGTKLELK
B2: chimeric Ab 5-J22-A (antibody, V domains shown)
VH: EVQLVESGGGLVKPGGSRKLSCAASGFTFSDYGMHWVRQAPEKGLEWVAHISSGSNIIHYADTLKGRFTISRDNAKNTLFLQMTSLRSEDTAMYYCARFARGNTMDYWGQGTSVTVSS
VL: DIVMTQSPSSLTVTAGEKVTMSCKSSQSLLNSGNQKNYLTWYQQKPGQPPKLLIYWASTRESGVPDRFTGSGSGTDFTLTISSVQAEDLTVYYCQNAYSFPLTFGAGTKLELK
notes: also called 5-22-A
B3: chimeric Ab 7-A21-A (antibody, V domains shown)
VH: EVQLVESGGGLVKPGGSRKLSCAASGFTFSDYGMYWVRQAPEKGLEWLAYISSGSNTIYYADTVKGRFTISRDNAKNTLFLQMTSLRSEDTAMYYCARIARGNAMDYWGQGTSVTVSS
VL: DIVMTQSPSSLTVTAGEKVTMSCKSSQSLLNSGNQKNYLTWYQQKPGQPPKLLIYWASTRESGVPDRFTGSGSGTDFTLTISSVQAEDLAVYYCQNDYIYPLTFGAGTKLGLK
B4: chimeric Ab 7-B15-A (antibody, V domains shown)
VH: EVQLVESGGGLVKPGGSRKLSCAASGFTFSDYGMHWVRQAPEKGLEWIAHISSGSSTIYYADTMKGRFTISRDNAKNTLFLQMTSLRSEDTAMYYCARFVRGNALDYWGQGTSVTVSS
VL: DIVMTQSPSSLTVTAGEKVTMNCKSSQSLLNSGNQKNYLTWYQQKPGQPPKLLIYWASTRESGVPDRFTGSGSGTDFTLTISSVQAEDLTVYYCQNGYSYPLTFGAGTKLELK
B5: chimeric Ab 7-E20-A (antibody, V domains shown)
VH: EVQLVESGGGLVKPGGSRKLSCAASGFTFSDYGMHWVRQAPEKGLEWVAYISSGSSTIHYVDTMKGRFTISRDNAKNTLFLQMTSLRSEDTAMYYCARFARGNTLDYWGQGTSVTVSS
VL: DIVMTQSPSSLTVTAGEKVTMSCKSSQSLFNTGNQKNYLTWYQQKPGQPPKLLIYWASTRESGVPDRFTGSGSGTDFTLTISSVQAEDLTVYYCQNGYSYPLTFGAGTKLELK
B6: hybridoma clone 9-C6-A (antibody, V domains shown)
VH: EVQLVESGGGLVKPGGSRKLSCAASGFTFSDYGMHWVRQAPEKGLEWVAYISSGSSTIYYADTMKGRFTISRDNAKNTLFLQMTSLRSEDTAMYYCARFVRGNSMDYWGQGTSVTVSS
VL: DIVMTQSPSSLTVTAGEKVTLSCKSSQSLLNSGNQKNYLTWYQQKPRQPPKLLIYWASTRESGVPDRFTGSGSGTDFTLTISNVQAEDLTVYYCQNAYSYPLTFGAGTKLELK
B7: hybridoma clone 10-K12-A (antibody, V domains shown)
VH: EVQLVESGGGLVKPGGSRKLSCAASGFTFSDYGMFWVRQAPEKGLEWVGYISSGSSNIYYADTVKGRFTISRDNAKNTLFLQMTSLRSEDTAMYYCARIARGNAMDYWGQGTSVTVSS
VL: DIVMTQSPSSLTVTAGEKVTMSCKSSQSLLNSGNQKNYLTWYQQKPGQPPKLLIYWASTRESGVPDRFTGSGSGTDFTLTISSVQAEDLAIYYCQNDYFYPLTFGAGTKLELK
B8: hybridoma clone 5-K4-B (antibody, V domains shown)
VH: EVQLQQSGPELVKPGASVKMSCKASGYTFISYLIHWVKQKPGQGLEWIGYINPYNDGTKYNEKFKGKATLTSDKSSSTASMEFSSLTSEDSAVYYCTRGDFWGQGTTLTVSS
VL: DIVMTQSPSSLTVTAGEKVTMSCKSSQSLLNSGNQKNYLTWYQQKPGQPPKLLIYWASIRASGVPDRFTGSGSGTDFTLTISSVQAEDLALYYCLNDYSFPLTFGAGTKLELK
notes: also called 5K41B
B9: hybridoma clone 2-F13-A (antibody, V domains shown)
VH: EVQLQQSGPELVKPGASVKMSCKASGYTFTNYVMHWVKQKPGQGLEWIGYINPFDDGTKYNEKFKGKATLTSDKSSSTAYMELSSLTSEDSAVYYCTRGDYWGQGTTLTVSS
VL: DIVMTQSPSSLTVTAGEKVTMTCKSSQSLLNSGNQKNYLTWYQQKPGQPPKLLIYWASTRDSGVPDRFRGSGSGTDFTLTISSVQAEDLAVYYCLNDYSFPLTFGAGTKLELK
B10: hybridoma clone 9-M7-A (antibody, V domains shown)
VH: EVQLVESGGALVKPGGSLKLSCAASGFTFSNYAMSWIRQTPEKRLEWVATIIIGGTYTYYPDSVKGRFTISRDNAKNTLYLQMSSLRSEDTALYYCARQVYGNSFAYWGQGTLVTVSA
VL: DIVMTQSPSSLTVTAGEKVTMSCKSSQSLLNSGNQKNYLTWYQQKPGQPPKLLIYWASTRESGVPDRFTGSGSGTDFTLTISSVQAEDLAVYYCQNNYIYPFTFGSGTKLEIK
B11: hybridoma clone 1-M5-A (antibody, V domains shown)
VH: EVQLVESGGALVKSGGSLRLSCAASGFTFSNNAMSWIRQTPEKRLEWVATIIIGGTYTYYPDSVKGRFTISRDNAKNTLYLQMSSLRSEDTAFYYCARQVYGNSFAYWGQGTLVSVSA
VL: DIVMTQSPSSLTVTAGEKVTMSCKSSQSLLNSGNQKNYLTWYQQKPGQPPKLLIYWASTRESGVPDRFTGSGSGTDFTLTISSVQAEDLAVYYCQNNYFYPFTFGSGTKLEIK
B12: hybridoma clone 10-P2-A (antibody, V domains shown)
VH: EVQLQQSGPALVKPGASVKMSCKASGYSFTGYNIHWVKQSHGKSLEWIGYIDPNNGVTYSNQKFKGKATLTVDKSSSTAYMQLNSLTSEDSAVYYCARPYYGNSFDYWGQGTTLTVSS
VL: DIVMTQSPSSLTVTAGEKVTMSCKSSQSLLNSGNLRNYLTWYQQKPGQPPKLLIYWASTRESGVPDRFTGSGSGTDFTLTINSVQAEDLALYFCQDGYFYPFPFGSGTKLVIK
B13: hybridoma clone 2-D22-A (antibody, V domains shown)
VH: EVQLVESGGGLVKPGGSRKLSCAASGFTFSDYGMHWVRQAPEKGLEWIAYISSGSSSIYYADTVKGRFTMSRDNAKKTLFLQTTSLRSEDTAMYYCARIARGNAMDYWGQGTSVTVTS
VL: DIVMTQSPSSLTVTAGEKVTMSCKSSQSLLNSGNQRNYLAWYQQKPGQPPKLLIYWASTRESGVPDRFTGSGSGTDFTLTISSVQAEDLAVYYCQNDYSYPLTFGAGTKLELK
B14: hybridoma clone 6-M11-A (antibody, V domains shown)
VH: EVQLVESGGGSVKPGGSRKLSCAASGFTFSDYGMHWVRQAPEKGLEWVAYISSGSNTFYYTDTVKGRFTISRDNAKNTLFLQMTGLRSEDTAMYYCARFTRGNALDYWGQGTSVTVSS
VL: DIVMTQSPSSLTVTAGEKVTMSCKSSQSLLNSGNQKNYLTWYQQKPGQPPKLLLYWASTRESGVPDRFTGSGSGTDFTLTISSVQAEDLTVYYCQNAYSYPLTFGAGTKLELK
B15: hybridoma clone 7-G17-A (antibody, V domains shown)
VH: EVQLVESGGGLVKPGGSRKLSCAVSGFTFSDYGMYWVRQAPEKGLEWVAYISSGSSTIYYADTVKGRFTMSRDNAKNTLFLQMTSLRSEDTAMYYCARIARGNAMDYWGQGTSVTVSS
VL: DIVMTQSPSSLTVTPGEKVTMSCKSSQSLFNSGNQRNYLAWYQQKPGQPPKLLIYWASTRESGVPDRFTGSGSGTDFTLTISSVQAEDLAVYYCQNDYFYPLTFGAGTKLELK
B16: hybridoma clone 9-N14-A (antibody, V domains shown)
VH: EVQLVESGGGLVKPGGSRKLSCAASGFTFSDYGMYWVRQAPEKGLEWLAYISSGSNNIYYADTVKGRFTISRDNAKNTLFLQMTSLRSEDTAMYYCARIARGNAMDYWGQGTSVIVSS
VL: DIVMTQSPSSLTVTAGEKVTMSCKSSQSLLNSGNQKNYLTWYQQKPGQPPKLLIYWASTRESGVPDRFTGSGSGTDFTLTISSVQAEDLAVYYCQNDYIYPLTFGAGTKLGLK
B17: hybridoma clone 10-P12-A (antibody, V domains shown)
VH: EIQLQQSGAELVKPGTSVKISCKASGYSFTGYNMNWVKQSHGKSLEWIGNINPYYSNTNYNQRFKGKATLTVDKSSSTAYMQLNSLTSEDSAVYYCARHVRGNSFDYWGQGTTLTVSS
VL: DIVMTQSPSSLTVTAGERVTVGCKSRQSLFNSENQKNYLSWYQQKPGQPPKLLLYWTSTRESGVPERFTGSGSGTDFTLTISSVQAEDLAVYYCQNNYIYPFTFGSGTKLEIK
B18: hybridoma clone 1-H16-A (antibody, V domains shown)
VH: EVQLVESGGGLVKPGGSRKLSCAASGFTFSDYGMYWVRQAPEKGLEWVAFISSGSSTIYCADTVKGRFTISRDNAKNTLFLQMTSLRSEDTAMYYCARIARGNAMDYWGQGTSVTVSS
VL: DIVMTQSPSSLTVTAGERVTMSCKSSQSLLNSGNLKNYLTWYQQKPGQPPKLLIYWASTRESGVPDRFTGSGSGTDFTLTISTVQAEDLAVYYCQNDYFYPLTFGAGTKLELK

Columns and labels:
claudin 18.2 (CLDN18.2) [1] = biological target: T1, claudin 18.2 (CLDN18.2) (human); assay: FACS, HEK293-CLDN18.2 cells
T1 construct: also called Claudin 18 isotype 2; HEK293-CLDN18.2
Experimental: The interaction of 20 purified chimeric antibodies with CLDN18.2 was assessed by in-cell ELISAs and FACS using HEK293-CLDN18.2 cells. […] The FACS assays were performed as follows: Serial dilutions for each antibody clone shown in Tables 7 and 8 were prepared and stained with HEK293-CLDN18.2 cells on ice for 30 min, with final antibody concentrations of 10 g/ml, 3 g/ml, 1 g/ml, 0.3 μg/ml, 0.1 μg/ml, 0.03 μg/ml, 0.01 μg/ml, and 0 μg/ml. […] Cells were washed, and analyzed by FACS.

claudin 18.2 (CLDN18.2) [2] = biological target: T1, claudin 18.2 (CLDN18.2); assay: in-cell ELISA, HEK293-CLDN18.2 cells
Experimental: (§1) In-cell ELISAs were performed as follows: 5×10³ HEK293-CLDN18.2 cells were seeded per well in a poly-L-lysine-coated 96-well plate. The plates were then incubated at 37° C. with 5% CO₂ for 2 days. Following incubation, culture media was removed from each well, and the HEK293-CLDN18.2 cells were blocked with 200 μl blocking buffer (3% BSA/PBS (pH 7.4)) per well for 1 hour at room temperature. Each hybridoma supernatant was incubated with cells at room temperature for 1 hour. Cells were gently washed 3 times with 200 μl PBS (pH 7.4) containing 1 mM Ca²⁺ and 0.5 mM Mg²⁺. Next, cells were incubated with 100 μl of HRP-conjugated goat anti-human IgG (H+L) antibody for 1 hour at room temperature. Following the incubation, the cells were washed three times with 200 μl PBS (pH 7.4) containing 1 mM Ca²⁺ and 0.5 mM Mg²⁺. 100 μl of 1-Step™ Ultra TMB-ELISA Substrate was added to each well, and the reactions were stopped by addition of 50 μl of stop solution. OD₄₅₀ was measured using CLARIOStar microplate reader. The in-cell ELISAs were repeated for each clone using HEK293-CLDN18.1 cells.
The in-cell ELISAs were performed as described above. […] Cells were washed, and analyzed by FACS.

claudin 18.1 (CLDN18.1) [3] = biological target: T2, claudin 18.1 (CLDN18.1) (human, UniProt P56856 1-261); assay: FACS, hybridoma supernatant on HEK293-CLDN18.1
T2 construct: also called HEK293-CLDN18.1
Text: (§2) Ten days after fusion, hybridoma supernatants were screened by FACS against HEK293-CLDN18.2, HEK293-CLDN18.1 and HEK293.

claudin 18.2 (CLDN18.2) [4] = biological target: T1, claudin 18.2 (CLDN18.2); assay: FACS, hybridoma supernatant on HEK293-CLDN18.2;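 note: flow cytometry of hybridoma supernatants taken 10 days after fusion, applied to HEK293 cells stably expressing CLDN18.2, with MFI standing for mean fluorescence intensity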
Text: as §2

claudin 18.1 (CLDN18.1) [5] = biological target: T2, claudin 18.1 (CLDN18.1); assay: in-cell ELISA, hybridoma supernatant on HEK293-CLDN18.1 cells
Experimental: as §1

claudin 18.2 (CLDN18.2) [6] = biological target: T1, claudin 18.2 (CLDN18.2); assay: in-cell ELISA, hybridoma supernatant on HEK293-CLDN18.2 cells
Experimental: as §1

T2 sequence (P56856 whole entry): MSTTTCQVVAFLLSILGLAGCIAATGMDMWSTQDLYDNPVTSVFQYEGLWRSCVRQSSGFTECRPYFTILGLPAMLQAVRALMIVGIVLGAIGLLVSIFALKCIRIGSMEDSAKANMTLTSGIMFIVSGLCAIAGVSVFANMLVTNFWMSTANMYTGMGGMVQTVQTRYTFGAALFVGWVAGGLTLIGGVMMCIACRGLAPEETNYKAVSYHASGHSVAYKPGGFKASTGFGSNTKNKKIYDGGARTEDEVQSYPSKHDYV

Binder | EC50 (claudin 18.2 (CLDN18.2) [1]) [µg/mL] | EC50 (claudin 18.2 (CLDN18.2) [2]) [µg/mL] | MFI (claudin 18.1 (CLDN18.1) [3]) | MFI (claudin 18.2 (CLDN18.2) [4]) | OD450/µg IgG (claudin 18.1 (CLDN18.1) [5]) [OD450/µg IgG] | OD450/µg IgG (claudin 18.2 (CLDN18.2) [6]) [OD450/µg IgG]
B1 | 0.029 | 0.059 | – | – | – | –
B2 | 0.023 | 0.065 | – | – | – | –
B3 | 0.134 | 0.23 | – | – | – | –
B4 | 0.032 | 0.066 | – | – | – | –
B5 | 0.05 | 0.198 | – | – | – | –
B6 | – | – | 9700 | 52400 | 3.82 | 28.3
B7 | – | – | 7910 | 48900 | 2.11 | 12.9
B8 | – | – | 126000 | 70800 | 139 | 88.2
B9 | – | – | 232000 | 138000 | 13.3 | 6.49
B10 | – | – | 7740 | 70300 | 0.79 | 19.2
B11 | – | – | 7950 | 59200 | 1.11 | 21.1
B12 | – | – | 10900 | 58900 | 0.34 | 4.71
B13 | – | – | 6310 | 58300 | 2.22 | 16.8
B14 | – | – | 8970 | 60500 | 1.55 | 11.4
B15 | – | – | 12900 | 136000 | 6.7 | 30.8
B16 | – | – | 10600 | 64000 | 3.14 | 34.4
B17 | – | – | 20100 | 131000 | 4.3 | 29.4
B18 | – | – | 28300 | 121000 | 1.05 | 14.2
